Data as given in patent US20110002929A1 (Ablynx, published 2011).
Where a chain is given by its changes, count along the chain named. Values belong to the binder of their own block, whether it stands above or below them.

What was measured:
[1] = molecular target: T1, human RANK-L, full length, membrane-bound, expressed on HEK293T cells (human, UniProt O14788 1-317); experiment: FACS, HEK293T with human RANK-L, 3.2 pM Nanobody
T1 construct: whole, on cells; also called hRANK-L
T1 sequence (looked up): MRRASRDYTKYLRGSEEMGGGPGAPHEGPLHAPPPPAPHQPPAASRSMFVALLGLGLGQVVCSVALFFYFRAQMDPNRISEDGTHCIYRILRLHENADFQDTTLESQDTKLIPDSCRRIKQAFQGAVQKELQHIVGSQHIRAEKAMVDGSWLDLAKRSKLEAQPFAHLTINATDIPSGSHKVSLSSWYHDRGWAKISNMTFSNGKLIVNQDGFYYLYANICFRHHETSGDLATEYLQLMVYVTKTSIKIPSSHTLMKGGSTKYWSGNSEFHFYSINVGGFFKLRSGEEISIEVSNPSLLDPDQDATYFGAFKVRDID
Procedure: (§1) Human embryonic kidney cells (HEK293T) were grown in Dulbecco's modified Eagles's medium supplemented with 10% fetal bovine serum (FBS), […] L-glutamine, 0.4 mM sodium pyruvate. […] After 48 hours, transfected cells were subjected to FACS analysis. […] Then cells were washed three times with FACS buffer. Bound Nanobodies were detected by subsequent incubations of a primary mouse anti Myc antibody (30 min at 4° C. (2 μg/ml)) and a second incubation with goat anti mouse-Phycoerythrin (PE) (Jackson Laboratories) for another 30 min at 4° C. Finally, after washing, the cells were resuspended in PBS+10% FBS+TO-PRO®-3 (5 nM) (Molecular Probes®, Invitrogen, Merelbeke, Belgium) and cell surface fluorescence expressed as mean PE fluorescence, was measured using flow cytometry.

[2] = molecular target: T2, cynomolgus RANK-L, full length, membrane-bound, expressed on HEK293T cells (cynomolgus monkey, UniProt A0A7N9DBU4 1-317); experiment: FACS, HEK293T with cynomolgus RANK-L, 2000 pM Nanobody
T2 construct: whole, on cells; also called cyno RANK-L
T2 sequence: T1 sequence (looked up) with A32T, F68L, G83S, D174N, S177T, I291V
Procedure: as §1

human RANK-L [3] = molecular target: T3, human RANK-L (human, UniProt O14788 140-317, limits assumed); experiment: cell-based or functional assay
T3 sequence (looked up): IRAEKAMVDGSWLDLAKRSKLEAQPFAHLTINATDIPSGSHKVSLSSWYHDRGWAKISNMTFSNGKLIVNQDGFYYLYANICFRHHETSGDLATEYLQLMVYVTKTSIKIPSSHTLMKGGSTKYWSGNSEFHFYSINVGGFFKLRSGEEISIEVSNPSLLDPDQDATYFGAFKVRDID

human RANK-L [4] = molecular target: T3, human RANK-L; experiment: AlphaScreen, biotin-hRANK-L / RANK-huFc beads
human RANK-L [5] = molecular target: T3, human RANK-L; experiment: SPR Biacore 3000, hRANK-L on CM5, 100 nM Nanobody; only indicative (one concentration)
Procedure: Binding kinetics of the humanized versions of Nanobodu RANL13 were also analysed by Surface Plasmon Resonance (Biacore 3000). […] Nanobody binding was assessed at one concentration (100 nM). Each Nanobody was injected for 4 minutes at a flow rate of 45 μl/min to allow binding to chip-bound antigen. Next, binding buffer without Nanobody was sent over the chip at the same flow rate to allow spontaneous dissociation of bound Nanobody.

[6] = molecular target: T2, cynomolgus RANK-L, full length, …; experiment: FACS, HEK293T with cynomolgus RANK-L, 400 pM Nanobody
Procedure: as §1

[7] = molecular target: T1, human RANK-L, full length, …; experiment: FACS, HEK293T with human RANK-L, 16 pM Nanobody
Procedure: as §1

[8] = molecular target: T1, human RANK-L, full length, …; experiment: FACS, HEK293T with human RANK-L, 2000 pM Nanobody
Procedure: as §1

human RANK-L [9] = molecular target: T3, human RANK-L; experiment: ELISA (ED50), biotin-hRANK-L on neutravidin
Outline: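 Nanobodies at 500 nM to 160 pM in 1% casein/PBS incubated 1 h at room temperature; binding detected via anti-myc then anti-mouse-HRP with TMB, OD 450 nm.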

TRAIL = molecular target: T4, TRAIL (UniProt P50591 114-281, limits assumed); experiment: competition ELISA on RANK-L-coated plates, 1 nM Nanobody preincubated with the ligand
T4 construct: also called tumor necrosis factor-related apoptosis inducing ligand

TNFα = molecular target: T5, TNFα (UniProt P01375 77-233); experiment: as above
T5 construct: also called TNF-alpha

CD40 ligand = molecular target: T6, CD40 ligand (UniProt P29965 113-261, limits assumed); experiment: as above
T6 sequence (looked up): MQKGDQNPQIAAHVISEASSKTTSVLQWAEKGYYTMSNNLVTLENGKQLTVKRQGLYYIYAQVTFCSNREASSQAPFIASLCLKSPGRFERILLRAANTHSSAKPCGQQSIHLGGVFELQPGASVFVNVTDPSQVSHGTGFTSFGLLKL

T5 sequence (P01375 77-233 limits assumed): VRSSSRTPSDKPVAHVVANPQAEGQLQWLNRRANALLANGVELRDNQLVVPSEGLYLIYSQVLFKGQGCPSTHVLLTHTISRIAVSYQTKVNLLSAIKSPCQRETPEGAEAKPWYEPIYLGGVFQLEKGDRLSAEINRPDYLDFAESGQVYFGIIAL
T4 sequence (P50591 114-281 limits assumed): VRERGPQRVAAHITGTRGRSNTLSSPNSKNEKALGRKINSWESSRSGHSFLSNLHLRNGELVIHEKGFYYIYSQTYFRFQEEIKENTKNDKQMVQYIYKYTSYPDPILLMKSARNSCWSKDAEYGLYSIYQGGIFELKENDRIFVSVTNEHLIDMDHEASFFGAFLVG

- PE mean fluorescence [1]: 220
- PE mean fluorescence [2]: 12400
- RANK-L induced NF-kappaB activation (luciferase reporter, HEK293T cells), IC50 (human RANK-L [3]): 6.21 nM
- IC50 (human RANK-L [4]): 0.147 nM
- Kd (human RANK-L [5]): 0.5 nM
- kon (human RANK-L [5]): 500000 M⁻¹ s⁻¹
- PE mean fluorescence [6]: 4110
- PE mean fluorescence [7]: 499
- PE mean fluorescence [8]: 13900
- EC50 (human RANK-L [9]): 0.226 nM
B1: RANKL13 (VHH, not shown: small tags and cut ends)
VHH: EVQLVESGGGLVQAGGSLRLSCAASGRTFRSYPMGWFRQAPGKEREFVASITGSGGSTYYADSVKGRFTISRDNAKNTVYLQMNSLRPEDTAVYSCAAYIRPDTYLSRDYRKYDYWGQGTQVTVSS
- binding result (TRAIL): no binding (tested: approximately 100 nM)
- binding result (TNFα): no binding (tested: approximately 100 nM)
- binding result (CD40 ligand): no binding (tested: approximately 100 nM)

- PE mean fluorescence [1]: 105
- PE mean fluorescence [2]: 12000
- RANK-L induced NF-kappaB activation (luciferase reporter, HEK293T cells), IC50 (human RANK-L [3]): 15.2 nM
- IC50 (human RANK-L [4]): 0.187 nM
- Kd (human RANK-L [5]): 0.18 nM
- kon (human RANK-L [5]): 310000 M⁻¹ s⁻¹
- PE mean fluorescence [6]: 3490
- PE mean fluorescence [7]: 218
- PE mean fluorescence [8]: 7630
- EC50 (human RANK-L [9]): 0.242 nM
B2: RANKL18 (VHH, not shown: small tags and cut ends)
VHH: EVQLVESGGGLVQAGGSLRLSCAASGRTFSRSAMGWFRQAPGKEREFVGFITGSGGTTYYGESVKGRFTISRDNAQNPVYLQMNSLKPEDTAVYYCGVYRRTYISSTYSESSEYDYWGQGTQVTVSS
- binding result (TRAIL): no binding (tested: approximately 100 nM)
- binding result (TNFα): no binding (tested: approximately 100 nM)
- binding result (CD40 ligand): no binding (tested: approximately 100 nM)
